B1: F1*; the commonest letter at each place (parent)
chain: GAGACCGCAACTGAAAAGTTGTTATCACTTGTCGTAAGACACTTTGGATGGGTTGAAGTTCTGCACGTAGAAGCAAAAGGC

Variants of: B1
Test: fraction ligated after 30 min (ligated reads / total reads); higher = more ligase activity
Conditions: with F1*sub RNA substrate (template-directed ligation), 42 °C
Experimental: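 Chip-synthesised pool of F1* ligase ribozyme variants (all single and double substitutions, single, double and triple deletions in the catalytic core and GAA bulge, plus designed variants) was transcribed with T7 and reacted as a pool with excess substrate F1*sub for 30 min at 42 C in 50 mM EPPS pH 8.5, 25 mM MgCl2. Ligated and unligated bands were separated by PAGE, barcoded by RT and deep sequenced; fraction ligated = ligated reads / total reads per variant, relative activity = FL / FL of wild type (0.826). Sequences are the DNA template of the ribozyme.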

Row | Variant | fraction ligated
1 | C26A C28A | 0.64
2 | C26A C28G | 0.395
3 | C26A C28T | 0.584
4 | C26A A27G | 0.747
5 | C26A A27C | 0.842
6 | C26A A27T | 0.747
7 | T25A T44G | 0.117
8 | T25A T44C | 0.605
9 | T25A T44A | 0.762
10 | T25A C33G | 0.229
11 | T25A C33A | 0.189
12 | T25A C33T | 0.472
13 | C26A G31A | 0.261
14 | C26A G31T | 0.0438
15 | C26A G31C | 0.226
16 | T25G T30C | 0.372
17 | T25G T30A | 0.674
18 | T25G T30G | 0.776
19 | T25G T29C | 0.385
20 | T25G T29G | 0.714
21 | T25G T29A | 0.773
22 | T25G G38C | 0.165
23 | T25G G38A | 0.676
24 | T25G G38T | 0.659

Row | Variant | fraction ligated
25 | C26A A37G | 0.785
26 | C26A A37T | 0.797
27 | C26A A37C | 0.781
28 | C26G A48G | 0.058
29 | C26G A48C | 0.104
30 | C26G A48T | 0.00571
31 | T25G T35G | 0.804
32 | T25G T35A | 0.787
33 | T25G T35C | 0.785
34 | T25A T30G | 0.461
35 | T25A T30A | 0.32
36 | T25A T30C | 0.218
37 | T25C A37C | 0.766
38 | T25C A37T | 0.784
39 | T25C A37G | 0.812
40 | T25A G31T | 0.0308
41 | T25A G31A | 0.0494
42 | T25A G31C | 0.034
43 | T25C A36C | 0.771
44 | T25C A36T | 0.793
45 | T25C A36G | 0.816
46 | C26G A36G | 0.767
47 | C26G A36C | 0.0567
48 | C26G A36T | 0.773

Row | Variant | fraction ligated
49 | T25G A27T | 0.706
50 | T25G A27C | 0.705
51 | T25G A27G | 0.434
52 | T25C G47A | 0.734
53 | T25C G47C | 0.0468
54 | T25C G47T | 0.208
55 | T25G A56G | 0.0638
56 | T25G A56T | 0.0925
57 | T25G A56C | 0.0423
58 | C26G C28A | 0.688
59 | T25A T29C | 0.187
60 | T25A T29G | 0.691
61 | T25A T29A | 0.582
62 | T25C T32G | 0.707
63 | T25C T32C | 0.762
64 | T25C T32A | 0.745
65 | T25A G50T | 0.536
66 | T25A G50C | 0.267
67 | T25A G50A | 0.225
68 | T25A T32A | 0.094
69 | T25A T32C | 0.145
70 | T25A T32G | 0.13
71 | T25G A41C | 0.0915
72 | T25G A41G | 0.492

Row | Variant | fraction ligated
73 | T25G A41T | 0.662
74 | C26G A57C | 0.33
75 | C26G A57T | 0.312
76 | C26G A57G | 0.576
77 | T25C T49C | 0.757
78 | T25C T49A | 0.777
79 | T25C T49G | 0.777
80 | T25C G31A | 0.742
81 | T25C G31C | 0.53
82 | T25C G31T | 0.546
83 | C26A G50T | 0.0739
84 | C26A G50A | 0.0155
85 | C26A G50C | 0.0201
86 | T25C G34C | 0.795
87 | T25C G34A | 0.799
88 | T25C G34T | 0.786
89 | C26A G46T | 0.449
90 | C26A G46A | 0.73
91 | C26A G46C | 0.744
92 | T25C T35G | 0.801
93 | T25C T35C | 0.771
94 | T25C T35A | 0.781
95 | T25A C42T | 0.785
96 | T25A C42A | 0.653

Row | Variant | fraction ligated
97 | T25A C42G | 0.553
98 | T25C A48T | 0.815
99 | T25C A48G | 0.794
100 | T25C A48C | 0.686
101 | T25C T29A | 0.753
102 | T25C T29G | 0.783
103 | T25C T29C | 0.781
104 | T25C C28A | 0.684
105 | T25C C28T | 0.803
106 | T25C C28G | 0.78
107 | T25G T45G | 0.0229
108 | T25G T45C | 0.0153
109 | T25G T45A | 0.0602
110 | T25A C28G | 0.431
111 | T25A C28T | 0.714
112 | T25C T45C | 0.0655
113 | T25C T45G | 0.0359
114 | T25C T45A | 0.295
115 | T25C C33G | 0.144
116 | T25C C33T | 0.786
117 | T25C C33A | 0.77
118 | C26A A36C | 0.79
119 | C26A A36T | 0.823
120 | C26A A36G | 0.781

Row | Variant | fraction ligated
121 | T25G T44A | 0.737
122 | T25G T44G | 0.474
123 | T25G T44C | 0.741
124 | T25C T44C | 0.765
125 | T25C T44G | 0.0249
126 | T25C T44A | 0.788
127 | T25A G47T | 0.253
128 | T25A G47C | 0.0196
129 | T25A G47A | 0.462
130 | T25G G34T | 0.735
131 | T25G G34A | 0.77
132 | T25G G34C | 0.737
133 | C26A G55A | 0.618
134 | C26A G55T | 0.249
135 | C26A G55C | 0.0379
136 | C26A G38C | 0.313
137 | C26A G38T | 0.793
138 | C26A G38A | 0.774
139 | T25G G50C | 0.142
140 | T25G G50T | 0.436
141 | T25G G50A | 0.103
142 | C26G A56G | 0.0248
143 | C26G A56C | 0.0241
144 | C26G A56T | 0.0342

Row | Variant | fraction ligated
145 | T25G | 0.784
146 | T25C | 0.759
147 | T25G G47A | 0.363
148 | T25G G47T | 0.102
149 | T25G G47C | 0.242
150 | T25C G38C | 0.0674
151 | T25C G38T | 0.747
152 | T25C G38A | 0.803
153 | T25G C26T | 0.191
154 | T25G C26A | 0.261
155 | T25G C26G | 0.0648
156 | C26G A27G | 0.694
157 | C26G A27T | 0.411
158 | C26G A27C | 0.782
159 | C26A C42G | 0.731
160 | C26A C42A | 0.773
161 | C26A C42T | 0.793
162 | C26A A41T | 0.768
163 | C26A A41G | 0.761
164 | C26A A41C | 0.21
165 | C26A A48T | 0.00798
166 | C26A A48G | 0.123
167 | C26A A48C | 0.366

From the supplement of paper PMC6755084
